Source: the supplement of paper PMC9170038

system: K4 kissing-loop RNA reporter; assay: apparent KD of K4 kissing-loop reporter; higher = weaker reporter binding; conditions: Eterna round: R107; input ligand: none
Experimental: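 RNA-MaP round R107: designed RNA switches with theophylline, tryptophan, arginine or FMN aptamers are transcribed on-chip within common flanks. They are titrated with a labelled K4 kissing-loop RNA reporter in RNA-MaP buffer (100 mM Tris pH 7.5, 80 mM KCl, 4 mM MgCl2), without ligand or with the indicated ligand. Median apparent KD per design.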
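Note: bound reporter read as fluorescence of individual clusters on recovered sequencing chips by microscopy, with normalized cluster intensities fitted with a binding model.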

Sequence | apparent KD of K4 kissing-loop reporter
CAUUCAGUGAUGUUGGAAGGCGAGCGGGAUACCAGCGGAGACUCACGCCCUUGGCAGCCCAUAUAUCCCAGGUAGAUAAUAGUUC [Same State - Theophylline A (Freestyle 5)] | 217 nM
GGAACUACGACGGCCGCCACUCUGUAUCCCAACGUUAAGGUCCUAACUGCAAGUGAUGUUUGUGCGAGGACCGGGUCUCCCUUGC [theeternabot_exclusion_KL_Trp_B_30] | 272 nM
AUGCGCGCGGCGGCCGCCACUCGCAUGAGAGUGAUGUUCUCACCGUGACCGUAAGGUCGCGGUGUGAGGACCGGGCCGGGCUGCG [#2 Same State - Tryptophan B Attempt #23 (HarryS)] | 245 nM
CUGGGUUGACGAAAAGUCAACAAAAGAGAAGGAGCGCACGAAAGUGCAGGUAGGUCGCUCAUCCAGUGAUGUUGGAUCAUCCAGA [#SwitchBubble 16 #K4Late] | 316 nM
UGUCAUUGGUCGGCCGCCACUCCGUAACGAGUGAUGUUCUAAAAGACGGAUCGAAAGAUCUGUCGGAGGACCGGGACCGAUGACU [FiskerMod 7 - Jieux - Same State - Tryptophan B] | 448 nM
UGUACCGAGUCAGGAUAUGUCGUCGAAAGACGAAUCCUAGUGAUGUUAGGGAUCUGCGAAAGCAGUGCAGAAGGGACUUGGUACU [FmnBS 26 U20+G67] | 216 nM
CUAUGGAAACAUAGUGAUCGGGAAACCGAUACCAGUAUGGAAACAUACCCUUGGCAGCGGAAUGAUCAAACGGAGUGAUGUUCCG [Theophylline A K4 21] | 648 nM
CCAUCGCUAUUCGAUACCAGCUCCUUAGUGAUGUUAAGGUUUUACCCACUGUAGGUGGGAAGCCCUUGGCAGCGAAUAGUGAUGG [Theophylline B K4 28] | 1150 nM
GGUAGCAUGGCGGCCGCCACUCUUCAUUAGUGAUGUUAAUGCCGAGUGCGCUAACUCCGCCAGGAGAGGACCGGGCCAUGCUACC | 406 nM
AGAACUGUCUGAGAUACCAGCUAAGGAGUGAUGUUCCUAGCUCCACGAAAGUGGAGCCAUAGCCCUUGGCAGCUCAGACAGUUCA [Omei KL Theo B SS A v6] | 1050 nM
GCAGUGAUGUUGCACGAGUAGGGUAGAGUGCGAGGACCGGUACGGCCGCCACUCGUAUGGAACUCGCUAAUUUAUGGAAUGGUGA [whbob_SS_tryp_A] | 1020 nM
UGCAUCGUUGGCAGGCGCACCACACAGUGUAAGGAUAUGAUGUCGUUCAGAAGGUACGCUUGACCGAGUGAUGUUCGGGAGUGCC [theeternabot_sameState_KL_FMN_A_9] | 218 nM
GGAGUUACCUGGGAUACCAGUCGGAGUCUCAGAGCACAGAGUGAUGUUCUGGGAUGUUUCGGCCCUUGGCAGCUCUGGGACUCCA [#2 Exclusion - Theophylline B Attempt #14 (HarryS)] | 403 nM
AGCGAGAUACUUGUCUAGUAUACUACAGAUACCAGACAAGUACUAGUCCCUUGGCAGCUGUAGAUCGAGUGAUGUUCGAGUCGCU [Theo A SS t1] | 516 nM
UGUAUGUGAUUUGAUACCAGACCAUCUUGUGAGAAAUGAGUGAUGUUUAUUUUGGUUUGGGUCCCUUGGCAGCAAAUCGCAUACU [KL-SSTheoB24] | 505 nM
AACAUUUUCAGAAGGAGCGUGAAUUAUUCAUAAUUAUAUUAUACGAGUGAUGUUCGUAUUUCACAGGUAGGUCGCUGAUAUAUUA [JR_SSArginiB_Sub001] | 114 nM

same assay, conditions: Eterna round: R107; input ligand: theophylline 20 uM

Sequence | apparent KD of K4 kissing-loop reporter
AGAGUUAUGCGAGGAUAUGCGGUUAGUACUCAAAGAGUACUAACGCAGAGUGAUGUUCUGUGAAACACAGAAGGCGCAUAACUCA [Omei KL FMN B SS B v1] | 448 nM
AAGGACGGGACUUCCUCGCCGGAUAGAGAUACCAGCCCAGCAAUGGGCCCUUGGCAGCUCACUGACCUCAGUGAUGUUGAGGUUC [Arange] | 193 nM
UAGGAGUGAUGUUCCUUUAGCAGGUAGGAAGGAGCGCCCAUUUGGGCAGGUAGGUCGCCUACUGGCCCUGAGUUAAACCUUAGGC [#11 K4 Arginine A Same State] | 207 nM
UGGAGUUGACGAAAAGUCAACUCCUGAGAUACCAGUGACGAAAGUCACCCUUGGCAGCUCACUGCCAGUGAUGUUGGAAAUAAAA [#01 K4 Theophylline A Same State] | 337 nM
CGUAGCAGACGAAGGAGCGGCUACCUGAAUCAGGGUGAUGCCUGAGUGAUGUUCAGGUAAAGCCAGGUAGGUCGCGUCUGCUACG [Arg B Ex t9a] | 235 nM
UGACUGGACUGAAGGAGCGCUGAACUCCUAGUGAUGUUAGGACAACGAGACAAAGUCUCGCGGCAGGUAGGUCGCAGUCUAGUCU | 145 nM
UGUACCGAGUCAGGAUAUCAUAAAGUUGGAGUGAUGUUCCAAUAACGACUGACAAAGUCGGUCGAUUGAGAAGGGACUUGGUACU [FmnBS 9 #SwitchBubble #StaticStem] | 143 nM
AGCUAGUACGCAGGAUAUCGAACAUCAUUUAGUGAGAUCGAGUGAUGUUCGAUCACGUCUUCAGUUCGAGAAGGGCGUACUAGCA [#01 K4 FMN B Same State] | 1220 nM
UGAGGAGAUUAUGAUACCAGCAGAGAGAGAGAGGAAGUAUAGUGAUGUUAUAUGAGAUAAUGCCCUUGGCAGCAUAAGAAGAAGG [#20 K4 Theophylline B Same State] | 147 nM
AAGUGAUGUUGUAGUGAUGUUGUGAUGUUGCAGGAUAUAUAGUGAUGUAGAAGGGUAAGUACUGAUUUUUUUUGUGAGUGAUGUU [bbgvzrmullin] | 54.1 nM
GGACGACAGUCGGCCGCCACUCACAGCAGCCAGUGAUGUUGGAUUGUAGCGGAGUGAUGUUUCGCGAGGACCGGGACUGCAGUCC [Same State Tryptophan B GF 14] | 226 nM
AAUAUAGUGAUGUUAUAUAAGAAGGAGUUACGAGGACCGGUACGGCCGCCACUCGAAACGAGUGAGGAUUUGGGAGAUUGGGUUC [SSTryptA.L] | 302 nM
GACUGGUUAACAGAUACCAGCCACAAGCGUUGAGGCGGCGGUAAAGUGAUGUUUUAUAAAGGCCCUUGGCAGCUGACUAGUUCGU [theeternabot_exclusion_KL_Theo_B_28] | 381 nM
UGACUGGACUGAAGGAGCGUUGAAGGAGCGUAAGGAGUGAUGUUCCAUACAGGUAGGUCGCAGCAGGUAGGUCGCAGUCUAGUCU [ArgBS 26 #DoubleAptamer #SwitchBubble] | 171 nM
AGACCACAAAGUGGUCAGUGUUCGCGGCAGCGAGGACCGGUACGGCCGCCACUCGCGAGUGAUGUUCGCGAGAGCCGCGAACACA [Omei KL Tryp A Exc A v8] | 93.8 nM
CAUUCAGUGAUGUUGGAAGGCGAGCGGGAUACCAGCGGAGACUCACGCCCUUGGCAGCCCAUAUAUCCCAGGUAGAUAAUAGUUC [Same State - Theophylline A (Freestyle 5)] | 219 nM
GGAACUACGACGGCCGCCACUCUGUAUCCCAACGUUAAGGUCCUAACUGCAAGUGAUGUUUGUGCGAGGACCGGGUCUCCCUUGC [theeternabot_exclusion_KL_Trp_B_30] | 218 nM
AUGCGCGCGGCGGCCGCCACUCGCAUGAGAGUGAUGUUCUCACCGUGACCGUAAGGUCGCGGUGUGAGGACCGGGCCGGGCUGCG [#2 Same State - Tryptophan B Attempt #23 (HarryS)] | 281 nM
CUGGGUUGACGAAAAGUCAACAAAAGAGAAGGAGCGCACGAAAGUGCAGGUAGGUCGCUCAUCCAGUGAUGUUGGAUCAUCCAGA [#SwitchBubble 16 #K4Late] | 646 nM
UGUCAUUGGUCGGCCGCCACUCCGUAACGAGUGAUGUUCUAAAAGACGGAUCGAAAGAUCUGUCGGAGGACCGGGACCGAUGACU [FiskerMod 7 - Jieux - Same State - Tryptophan B] | 199 nM
UGUACCGAGUCAGGAUAUGUCGUCGAAAGACGAAUCCUAGUGAUGUUAGGGAUCUGCGAAAGCAGUGCAGAAGGGACUUGGUACU [FmnBS 26 U20+G67] | 226 nM
CUAUGGAAACAUAGUGAUCGGGAAACCGAUACCAGUAUGGAAACAUACCCUUGGCAGCGGAAUGAUCAAACGGAGUGAUGUUCCG [Theophylline A K4 21] | 278 nM
CCAUCGCUAUUCGAUACCAGCUCCUUAGUGAUGUUAAGGUUUUACCCACUGUAGGUGGGAAGCCCUUGGCAGCGAAUAGUGAUGG [Theophylline B K4 28] | 538 nM
